In PMC9584954:

Experiments:
[1] = biological target: Methanococcus aeolicus McrB (untagged) (Methanococcus aeolicus); test: native MS; intact protein mass spectrometry (12 T FT-ICR, nano-electrospray) of purified NG-tagged MCRaeo, 10 μM in 200 mM ammonium acetate pH 7.6
[2] = biological target: Methanococcus aeolicus McrA (untagged) (Methanococcus aeolicus); test: as above
[3] = biological target: Flag-Strep2-tagged Methanococcus aeolicus McrG (tag at the N-terminus of McrG, NG) (Methanococcus aeolicus); test: as above
[4] = biological target: Flag-Strep2-tagged Methanococcus aeolicus McrB (tag at the N-terminus of McrB, NB) (Methanococcus aeolicus); test: affinity purification with mass spectrometry; Flag-Strep2-tagged subunit expressed with its mcr operon (full or truncated) in M. maripaludis at 37 °C; lysate on Strep-Tactin Superflow Plus in 100 mM Tris-HCl pH 7.6, 150 mM NaCl, eluted with 2.5 mM desthiobiotin, then Q-Sepharose anion exchange; SDS-PAGE, bands identified by MALDI-TOF MS, relative abundance by LC-MS/MS
[5] = biological target: Flag-Strep2-tagged Methanococcus aeolicus McrA (tag at the C-terminus of McrA, CA) (Methanococcus aeolicus); test: as above
[6] = biological target: Flag-Strep2-tagged Methanococcus aeolicus McrG (tag at the N-terminus of McrG, NG) (Methanococcus aeolicus); test: as above

## Methanococcus aeolicus McrB (untagged) (natural protein)
[1]
  stoichiometry N: 2

## Methanococcus aeolicus McrA (untagged) (natural protein)
[2]
  stoichiometry N: 2

## Flag-Strep2-tagged Methanococcus aeolicus McrG (tag at the N-terminus of McrG, NG) (natural protein)
[3]
  stoichiometry N: 2

## untagged host Methanococcus maripaludis McrG (natural protein)
[4]
  percent of the total McrG in the purified complex: 30%
[5]
  percent of the total McrG in the purified complex: 30%
[6]
  percent of the total McrG in the purified complex: 30%
